Molecular target: Mcm2-7 heterohexamer (X. laevis (endogenous in egg extract)) (UniProt P55861)
Assay: SEC + other: glycerol gradient sedimentation

stoichiometry N (hexamers in the complex): 2
Substance: Mcm2-7 heterohexamer, P55861 1-886; P49739 1-807; P30664 1-863; P55862 1-735; Q5FWY4 1-821; Q91876 1-720

From paper PMC3064236
